Experimental data as given in paper PMC6351565, “Mechanism of IRSp53 inhibition by 14-3-3” (Nature Communications, 2019).

Key:
[1] = molecular target: T1, FLAG-Eps8/pIRSp53 complex (human | human (from the printed UniProt …, UniProt Q12929 1-822)); Q9UQB8-4 1-521, natively phosphorylated in HEK293T cells (as m4)); assay: pull-down; anti-Flag magnetic beads with or without the FLAG-Eps8/pIRSp53 complex; 14-3-3θ detected; settings: both partners purified
T1 construct: Eps8, human, UniProt Q12929, full length; IRSp53 (BAIAP2), isoform-4, UniProt Q9UQB8-4, full length; source: formed from purified 2xFLAG-Eps8 (HEK293T) and purified pIRSp53 (serum-starved HEK293T)
T1 sequence (Q12929 whole entry, canonical isoform, one chain of several): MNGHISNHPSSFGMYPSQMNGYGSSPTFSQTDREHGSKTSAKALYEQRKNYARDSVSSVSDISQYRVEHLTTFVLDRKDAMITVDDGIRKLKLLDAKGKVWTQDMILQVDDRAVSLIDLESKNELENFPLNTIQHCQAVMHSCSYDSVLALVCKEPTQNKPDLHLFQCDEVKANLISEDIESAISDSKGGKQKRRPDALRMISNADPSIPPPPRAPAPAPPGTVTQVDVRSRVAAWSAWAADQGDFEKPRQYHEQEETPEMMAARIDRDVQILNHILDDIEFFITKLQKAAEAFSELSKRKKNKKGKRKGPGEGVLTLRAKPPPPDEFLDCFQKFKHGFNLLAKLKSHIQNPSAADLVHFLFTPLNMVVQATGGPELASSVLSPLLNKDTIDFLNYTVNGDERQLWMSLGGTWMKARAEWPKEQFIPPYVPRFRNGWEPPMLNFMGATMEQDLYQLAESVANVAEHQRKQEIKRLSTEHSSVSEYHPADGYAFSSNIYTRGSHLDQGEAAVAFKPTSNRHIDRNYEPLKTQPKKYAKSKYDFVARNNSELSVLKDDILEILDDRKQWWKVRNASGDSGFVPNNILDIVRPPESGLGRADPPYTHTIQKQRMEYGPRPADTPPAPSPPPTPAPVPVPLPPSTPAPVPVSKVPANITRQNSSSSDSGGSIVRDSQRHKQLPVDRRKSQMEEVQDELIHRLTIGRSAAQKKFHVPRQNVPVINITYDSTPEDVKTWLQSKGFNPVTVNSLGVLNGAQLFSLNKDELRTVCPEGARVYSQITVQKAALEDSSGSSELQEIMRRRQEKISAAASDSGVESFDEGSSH

[2] = molecular target: the molecule itself; assay: crystal structure; 14-3-3θ pre-incubated with singly (2.5:1) or doubly (0.6:1) phosphorylated IRSp53 peptides; hanging drop, 18 °C; resolution 2.0 to 2.9 Å
pIRSp53FS = molecular target: T2, pIRSp53FS (human (from the printed UniProt entry), UniProt Q9UQB8-4 1-521, S519C, natively phosphorylated in HEK293T cells; fluorescein maleimide / rhodamine maleimide on C230 and C519); assay: other fluorescence titration; intramolecular FRET sensor (fluorescein/rhodamine on C230 and C519 of IRSp53); Cdc42, Eps8 and/or 14-3-3θ titrated into the sensor, also back to back; 20 °C; 25 mM Tris-HCl pH 7.5, 150 mM NaCl, 1 mM MgCl2, 5% glycerol, 0.1 mM TCEP; observed Kd (Kobs) from the fits; settings: both partners purified
T2 construct: IRSp53 (BAIAP2), isoform-4, UniProt Q9UQB8-4, full length, S519C; Expressed and purified as m4; also called IRSp53 FRET sensor; phosphorylated IRSp53 (mutant S519C)
T2 sequence (looked up): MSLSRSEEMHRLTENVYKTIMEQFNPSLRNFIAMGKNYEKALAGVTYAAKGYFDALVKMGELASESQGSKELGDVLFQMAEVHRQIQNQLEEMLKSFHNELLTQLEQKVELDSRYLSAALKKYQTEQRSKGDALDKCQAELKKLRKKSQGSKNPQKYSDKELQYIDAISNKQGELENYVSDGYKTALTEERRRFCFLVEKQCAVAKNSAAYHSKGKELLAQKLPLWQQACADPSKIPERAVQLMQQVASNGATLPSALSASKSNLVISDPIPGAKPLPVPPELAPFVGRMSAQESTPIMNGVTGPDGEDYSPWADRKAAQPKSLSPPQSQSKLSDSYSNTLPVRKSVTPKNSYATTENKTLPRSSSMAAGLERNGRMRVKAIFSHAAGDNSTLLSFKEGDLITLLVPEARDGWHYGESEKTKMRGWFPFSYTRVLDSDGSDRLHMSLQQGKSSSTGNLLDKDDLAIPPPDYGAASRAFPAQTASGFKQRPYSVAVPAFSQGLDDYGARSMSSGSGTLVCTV

pM234FS = molecular target: T3, pM234FS (human (from the printed UniProt entry), UniProt Q9UQB8-4 1-521, T340A | T360A | S366A | S519C, fluorescein / rhodamine labels as in pIRSp53FS (C230 and C519)); assay: as above; settings: both partners purified
T3 construct: IRSp53 (BAIAP2), isoform-4, UniProt Q9UQB8-4, full length, FRET sensor (S519C) with T340A/T360A/S366A; also called modified FRET sensor T340A/T360A/S366A; source: serum-starved HEK293T, purified, labelled
T3 sequence (looked up): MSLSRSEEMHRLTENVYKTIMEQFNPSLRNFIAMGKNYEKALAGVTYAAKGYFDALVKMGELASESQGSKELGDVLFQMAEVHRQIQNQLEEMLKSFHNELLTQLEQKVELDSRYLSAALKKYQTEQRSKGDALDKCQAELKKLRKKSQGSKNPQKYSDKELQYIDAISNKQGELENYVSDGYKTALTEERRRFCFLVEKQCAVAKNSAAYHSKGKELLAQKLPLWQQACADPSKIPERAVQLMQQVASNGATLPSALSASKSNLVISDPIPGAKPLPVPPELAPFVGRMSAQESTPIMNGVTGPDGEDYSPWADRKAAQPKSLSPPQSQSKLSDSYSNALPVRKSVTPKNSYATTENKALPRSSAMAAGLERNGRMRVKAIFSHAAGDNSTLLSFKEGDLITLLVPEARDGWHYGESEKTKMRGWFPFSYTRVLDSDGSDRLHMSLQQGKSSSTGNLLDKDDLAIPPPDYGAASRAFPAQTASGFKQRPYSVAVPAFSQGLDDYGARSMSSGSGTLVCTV

2xFLAG-Eps8 = molecular target: T4, 2xFLAG-Eps8 (human, UniProt Q12929 1-822); assay: pull-down; anti-Flag magnetic beads with or without the FLAG-Eps8/pIRSp53 complex; 14-3-3θ detected; settings: both partners purified
T4 construct: Eps8, human, UniProt Q12929, full length; also called FLAG-tagged Eps8
T4 sequence (Q12929 whole entry): as the sequence (Q12929 whole entry, canonical isoform, one chain of several) above

B1: 14-3-3θ (natural protein, human)
chain: MEKTELIQKAKLAEQAERYDDMATCMKAVTEQGAELSNEERNLLSVAYKNVVGGRRSAWRVISSIEQKTDTSDKKLQLIKDYREKVESELRSICTTVLELLDKYLIANATNPESKVFYLKMKGDYFRYLAEVACGDDRKQTIDNSQGAYQEAFDISKKEMQPTHPIRLGLALNFSVFYYEILNNPELACTLAKTAFDEAIAELDTLNEDSYKDSTLIMQLLRDNLTLWTSDSAGEECDAAEGAEN
notes: 14-3-3θ, human, UniProt P27348; also called 14-3-3 theta; 14-3-3τ
[1]
  binding result: binds
[2]
  binding result: binds
pIRSp53FS
  Kd: 0.079 µM

B2: GMPPNP-Cdc42 (constitutively active mutant G12V) (domain or fragment)
chain: not shown
notes: Cdc42, human, residues 1-178, G12V; Loaded with GMPPNP; also called GNPPNP-Cdc42 (G12V mutant); source: E. coli BL21(DE3), purified
pIRSp53FS
  Kd: 19.1 µM
pM234FS
  binding result: binds

B3: IRSp53-FLAG (wild type), natively phosphorylated (natural protein, human (from the printed UniProt entry), UniProt Q9UQB8-4 1-521, looked up)
chain: MSLSRSEEMHRLTENVYKTIMEQFNPSLRNFIAMGKNYEKALAGVTYAAKGYFDALVKMGELASESQGSKELGDVLFQMAEVHRQIQNQLEEMLKSFHNELLTQLEQKVELDSRYLSAALKKYQTEQRSKGDALDKCQAELKKLRKKSQGSKNPQKYSDKELQYIDAISNKQGELENYVSDGYKTALTEERRRFCFLVEKQCAVAKNSAAYHSKGKELLAQKLPLWQQACADPSKIPERAVQLMQQVASNGATLPSALSASKSNLVISDPIPGAKPLPVPPELAPFVGRMSAQESTPIMNGVTGPDGEDYSPWADRKAAQPKSLSPPQSQSKLSDSYSNTLPVRKSVTPKNSYATTENKTLPRSSSMAAGLERNGRMRVKAIFSHAAGDNSTLLSFKEGDLITLLVPEARDGWHYGESEKTKMRGWFPFSYTRVLDSDGSDRLHMSLQQGKSSSTGNLLDKDDLAIPPPDYGAASRAFPAQTASGFKQRPYSVAVPAFSQGLDDYGARSMSSGSGTLVSTV
modifications: phosphorylated in HEK293T cells at S325, T340, T360, S366 and a residue within 452SSST455, most likely S454 (mass spectrometry of the purified 14-3-3-binding-competent fraction)
notes: also called pIRSp53; WT IRSp53-FLAG; source: HEK293T, transfected, in lysate; not shown: FLAG, C-terminal, kept
2xFLAG-Eps8
  binding result: binds
